{"source": "patent US20170298106A1", "about": "(ZYNGENIA, published 2017)", "key": {"angiopoietin-2 (Ang2) [1]": {"biological_target": "T1, angiopoietin-2 (Ang2) (human, UniProt O15123 68-496, limits assumed)", "T1 construct": "Plain and biotinylated Ang2 are kept as one molecule; also called rhAng2; recombinant Ang2", "T1 sequence (looked up)": "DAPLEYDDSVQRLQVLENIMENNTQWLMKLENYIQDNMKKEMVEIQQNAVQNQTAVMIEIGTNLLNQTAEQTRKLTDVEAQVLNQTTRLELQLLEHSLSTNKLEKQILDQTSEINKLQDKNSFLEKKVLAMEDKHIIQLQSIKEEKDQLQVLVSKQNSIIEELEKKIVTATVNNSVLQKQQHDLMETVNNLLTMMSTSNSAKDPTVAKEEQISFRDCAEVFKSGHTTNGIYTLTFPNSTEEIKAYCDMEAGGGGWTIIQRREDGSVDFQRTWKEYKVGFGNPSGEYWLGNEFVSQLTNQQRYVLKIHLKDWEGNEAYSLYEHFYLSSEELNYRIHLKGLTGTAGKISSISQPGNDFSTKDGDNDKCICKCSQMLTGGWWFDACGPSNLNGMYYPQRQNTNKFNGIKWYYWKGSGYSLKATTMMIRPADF", "test": "ELISA on rhAng2-coated wells, MRD-MBP fusion, anti-MBP detection; EC50 by 4 parameter fit", "procedure": "(§1) MBP fusion proteins were serially diluted in Blocking buffer and added to wells for 2 hours at RT. After washing (8×300 μl wash buffer), samples were treated with HRP-mouse anti MBP mAb (NEB, cat # E8038S), diluted 1:4000 in Blocking buffer. After incubation for 1 hour at RT, wells were washed (8×300 μl wash buffer) prior to receiving 100 μl of TMB substrate (KPL Laboratories). Color development was stopped with 100 μl of H₂SO₄, and absorbance was read at 450 nm.\n(§2) Bound fusion proteins were detected with anti-MBP mAb. Assayed proteins represent mutational variants of the sequence […] […] (L17D) (SEQ ID NO:107). In this series, the motif MDD within L17D was mutated at the first D to all other possible amino acids (except cysteine). Other MRDs tested were “Lm32 KtoS” and a dimer of Lm32 (2×Lm32)."}, "angiopoietin-2 (Ang2) [2]": {"biological_target": "T1, angiopoietin-2 (Ang2)", "test": "ELISA, MRD-MBP fusions on plate-bound rhAng2, anti-MBP detection", "procedure": "as §1, §2"}, "VEGF [3]": {"biological_target": "T2, VEGF (human, UniProt P15692-4 27-191)", "T2 sequence (P15692 other isoform, or with tags, fused parts or gaps limits assumed)": "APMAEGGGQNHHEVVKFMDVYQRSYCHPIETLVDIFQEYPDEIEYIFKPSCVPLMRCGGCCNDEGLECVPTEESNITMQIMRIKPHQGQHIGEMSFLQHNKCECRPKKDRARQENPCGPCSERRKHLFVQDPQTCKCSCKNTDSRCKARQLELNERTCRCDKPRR", "test": "cell-based or functional assay"}, "VEGF [4]": {"biological_target": "T2, VEGF", "test": "ELISA, human VEGF coated (30 ng/ml), sample diluted in 3.876 ug/ml biotinylated Ang2, detection with HRP anti-human kappa chain mAb, A450", "procedure": "(§3) Ninety-six-well plates were coated overnight with human VEGF (PeproTech, Inc. cat#100-20) at 30 ng/ml (100 μl/well). […] After washing (8×300 μl wash buffer), parallel samples received either HRP-conjugated anti-human kappa chain mAb (Abeam, cat # ab79115) diluted 1:1000 in Blocking buffer or HRP-conjugated streptavidin (Thermo Scientific cat#N100) diluted 1:4000 diluted in Blocking buffer. After incubation for 1 hour at RT, wells were washed (8×300 μl wash buffer) prior to receiving 100 μl of TMB substrate (KPL Laboratories). Color development was stopped with 100 μl of H₂SO₄, and absorbance was read at 450 nm."}, "VEGF [5]": {"biological_target": "T2, VEGF", "test": "sandwich ELISA, human VEGF coated (30 ng/ml), zybody varied in 3.876 ug/ml biotinylated Ang2, detection with HRP-streptavidin, A450", "procedure": "as §3"}, "rHER2-Fc": {"biological_target": "T3, rHER2-Fc (UniProt P04626 23-652)", "T3 construct": "Bought reagent; also called Her2 (ErbB2) Fc; ErbB2-Fc", "test": "ELISA, rHER2-Fc coated (20 ng/ml), sample diluted in 1.94 ug/ml biotinylated Ang2, detection with HRP anti-human kappa chain mAb, A450", "procedure": "as §3, with “with rHER2-Fc (R&D cat#1129-ER-050)” for “with human VEGF (PeproTech, Inc. cat#100-20)”, “at 20” for “at 30”, “ng/ml (100W/well).” for “ng/ml (100 μl/well).”, “chain mAb-(Abeam,” for “chain mAb (Abeam,”, “# ab79115-1)” for “# ab79115)”"}}}
{"binder": "2×Lm32-MBP fusion (other, not shown: small tags and cut ends, also called Lm32 dimer) peptide: PGKGGGSMGAQTNFMPMDNDELLLYEQFILQQGLEGGGSMGAQTNFMPMDNDELLLYEQFILQQGLE", "values": [{"measurement": "EC50", "setting": "angiopoietin-2 (Ang2) [1]", "result": 0.005, "unit": "nM"}, {"measurement": "fold higher affinity than L17D or Lm32 KtoS", "setting": "angiopoietin-2 (Ang2) [2]", "result": "> 10", "unit": "fold"}]}
{"binder": "AVA-lm32(H) (bispecific antibody, not shown: a dimerising Fc or GST, also called AVASTIN with the lm32 MRD fused to the heavy chain) heavy (part 1 of 2): EVQLVESGGGLVQPGGSLRLSCAASGYTFTNYGMNWVRQAPGKGLEWVGWINTYTGEPTYAADFKRRFTFSLDTSKSTAYLQMNSLRAEDTAVYYCAKYPHYYGSSHWYFDVWGQGTLVTVSS heavy (part 2 of 2): MGAQTNFMPMDNDELLLYEQFILQQGLE VL: DIQMTQSPSSLSASVGDRVTITCSASQDISNYLNWYQQKPGKAPKVLIYFTSSLHSGVPSRFSGSGSGTDFTLTISSLQPEDFATYYCQQYSTVPWTFGQGTKVEIKR", "values": [{"measurement": "inhibition of VEGF-induced proliferation of HUVEC, IC50", "setting": "VEGF [3]", "result": 0.36, "unit": "nM"}, {"measurement": "EC50 (read off the curve)", "setting": "VEGF [4]", "result": "~0.5", "unit": "nM"}, {"measurement": "EC50 (read off the curve)", "setting": "VEGF [5]", "result": "~0.7", "unit": "nM"}, {"measurement": "binding result", "setting": "rHER2-Fc", "result": "no binding (tested: about 7 nM)"}]}
